Article PMC4336609

Molecular target: 14-3-3β (UniProt P31946)
Test: GST-14-3-3β pull-down from cell lysate
Conditions: reference: wild type; sites T181

XLF (from UniProt Q9H9Q4) T181A
binding against the reference: lost
